Data from PMC12767022.

Target: MBP‐Spz, maltose‐binding protein‐tagged Spz (Drosophila melanogaster) (UniProt P48607)
UniProt P48607, sequence (P48607 26-326): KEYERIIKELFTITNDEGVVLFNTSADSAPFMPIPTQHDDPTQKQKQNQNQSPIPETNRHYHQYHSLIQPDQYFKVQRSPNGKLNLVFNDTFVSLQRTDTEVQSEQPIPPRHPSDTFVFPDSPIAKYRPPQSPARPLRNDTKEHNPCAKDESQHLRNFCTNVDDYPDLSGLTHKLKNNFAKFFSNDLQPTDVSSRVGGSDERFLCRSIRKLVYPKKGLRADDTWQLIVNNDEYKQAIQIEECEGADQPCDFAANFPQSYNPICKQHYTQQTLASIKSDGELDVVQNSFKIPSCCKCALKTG

## GST‐ETS1, glutathione S‐transferase‐tagged ETS1 (enzyme)
  degradation of Spz by purified ETS1 (SDS‐PAGE band intensity, 0–4 h, 1 mM each CoCl2 and CaCl2): about half within 1 h, 80% after 4 h: 80%
